Assay [1] concerns the target activated coagulation factor X (FXa), human (human).
Assay [2] shares this target. As to the kind of experiment: enzyme inhibition assay (Ki from IC50 by Cheng and Prusoff); rSimukunin titrated against a constant concentration of enzyme, pre-incubated 5 min, fluorogenic peptidyl substrate 250 µM, 30°C; Ki calculated from the IC50 and the substrate's Km; estimated.

By Ki is commonly meant the equilibrium dissociation constant of an inhibitor or competing ligand from its target.

B1: recombinant Simukunin (rSV-66) (natural protein)
chain: QENVCNLPVDEGVCRALFKRFYYEPATDSCKEFYYGGCEGNGNRFKSKKECILKCQKNKQLIKTRKRKPKKTTKPPIPIISLD
B1 showed an IC50 of inhibition of enzyme activity (fluorogenic peptidyl substrate, 250 µM); Factor Xa 0.1 nM in assay [1] of 5.2 nM. The Ki in assay [2] was 2.1 nM.

The values are drawn from article PMC3285612.
